Measured values taken from patent US20170240614A1.

Key:
[1] = target: human insulin receptor isoform B (hIR-B) containing a C9 epitope tag at the C-terminus (human) (UniProt P06213); experiment: cell-based or functional assay
[2] = target: human insulin receptor isoform A (hIR-A) (human) (UniProt P06213); experiment: competitive radioligand binding (SPA), [125I]-A14-insulin, hIR-A membranes
[3] = target: human insulin receptor isoform B (hIR-B) containing a C9 epitope tag at the C-terminus (human) (UniProt P06213); experiment: competitive radioligand binding (SPA), [125I]-A14-insulin, hIR-B membranes

Receptor Phosphorylation EC50 [1]: 253 nM | Ki [2]: 4.1 nM | Ki [3]: 50.8 nM
Substance: IGF-1 (from UniProt P05019 49-118) (ligand)
